Target: syt2_rat Syt2 (UniProt P29101)

Row | Substance | effect of a mutation on the interaction
1 | Botulinum neurotoxin type B (Clostridium botulinum) (from UniProt P10844) V1118D | decreasing interaction strength
2 | Botulinum neurotoxin type B (Clostridium botulinum) (from UniProt P10844) F1194A | disrupting interaction strength
3 | Botulinum neurotoxin type B (Clostridium botulinum) (from UniProt P10844) F1204A | disrupting interaction strength
4 | Botulinum neurotoxin type B (Clostridium botulinum) (from UniProt P10844) K1192E | decreasing interaction strength

Source: IntAct's records for PubMed 17167421
